The experiment deals with T1, recombinant rat endophilin A1 FL (GST fusion) (rat, UniProt O35179 1-352).
T1 construct: endophilin A1 (endophilin 1), rat, full length, cloned into pGEX4T-1; also called endophilin 1
The experiment can be described thus: pull-down; 50 or 100 ug GST-fusion protein coupled to GST-Bind resin, incubated with 10 ug His6-tagged recombinant protein in 1 ml for 1 h at 4 °C; extensive washes; Coomassie staining and/or SDS-PAGE and immunoblotting. As to conditions: both partners purified. For orientation: In western blotting, separated proteins are transferred to a membrane and probed.

T1 sequence (O35179 whole entry, the tested form may be a part): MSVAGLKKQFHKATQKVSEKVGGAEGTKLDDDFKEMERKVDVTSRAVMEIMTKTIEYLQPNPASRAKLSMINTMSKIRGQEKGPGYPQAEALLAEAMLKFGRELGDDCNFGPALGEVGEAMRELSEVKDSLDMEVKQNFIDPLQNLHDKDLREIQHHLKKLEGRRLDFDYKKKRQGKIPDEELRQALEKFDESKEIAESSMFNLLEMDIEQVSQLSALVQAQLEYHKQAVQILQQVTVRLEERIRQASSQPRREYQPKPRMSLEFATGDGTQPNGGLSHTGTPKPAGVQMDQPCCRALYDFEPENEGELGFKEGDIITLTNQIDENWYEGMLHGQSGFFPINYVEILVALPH

B1: recombinant human intersectin-1 SH3B (aa 914-970), His6-tagged (domain or fragment, UniProt Q15811 914-970, looked up)
chain: EGLQAQALYPWRAKKDNHLNFNKNDVITVLEQQDMWWFGEVQGQKGWFPKSYVKLIS
notes: intersectin-1, human, SH3B domain, aa 914-970, cloned in pET28a; also called ITSN-1; ITSN1
For the molecule B1, the binding result is recorded as “binds”.

These data come from paper PMC7062783, “Endophilin-A coordinates priming and fusion of neurosecretory vesicles via intersectin” (Nature Communications, 2020).
